Test results from the supplement of paper PMC10126150.
± gives the standard deviation of the averaged measurements.

Tested on: ATP
Assay: switch fluorescence ratio, 500 uM ATP over buffer (Cy3 cluster intensity, sum of 5 cycles each) (fold (ratio)); higher = stronger signal-on switching upon ATP binding; sequences stand for … in TCGTCGGCAGCGTCAGATGTGTATAAGAGACAGTTTTTTTTTTTTTTTTTTTTTTTTT…TC
Conditions: aptamer strand: ATP DNA aptamer (quencher-CACCTGGGGGAGTATTGCGGAGGAAGG + anchor), 100 nM annealed; ATP concentration: 500 uM
Summary of the method: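 Cy3-labelled switching-strand clusters on a modified Illumina MiSeq flow-cell were annealed to 100 nM quencher-labelled ATP aptamer, imaged in selection buffer, then imaged after 15 min with 500 uM ATP at 22 °C. Five buffer/ATP cycles ran, with NaOH stripping and re-annealing between them. The fluorescence ratio is summed target-cycle over summed buffer-cycle Cy3 intensity per cluster, averaged per switch-domain sequence. Clusters outside 100-1000 RFU were excluded.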
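Note: ATP exposure 15 min at 22 °C before imaging.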

TTTTCAAGTG was tested, and the switch fluorescence ratio was 1 ± 0.029.

CGGATAATTG showed a switch fluorescence ratio of 0.9886 ± 0.0054.

Work on GGTCTGTTGT yielded a switch fluorescence ratio of 0.99 ± 0.049.

Work on TGCCAGTGCC yielded a switch fluorescence ratio of 1.04 ± 0.022.

Sequence GTGAAGATTG has a switch fluorescence ratio of 1.02 ± 0.032.

With ATAGCAGGTG the switch fluorescence ratio was 2.9 ± 1.1.

Sequence ACATCCCGTT has a switch fluorescence ratio of 1.05 ± 0.048.

Sequence GTCGTATTGG has a switch fluorescence ratio of 1.03 ± 0.03.

For TTATTTCGGG, the switch fluorescence ratio was 0.973 ± 0.013.

TTTTATGTGT gave a switch fluorescence ratio of 0.992 ± 0.035.

In the case of CTTAGATCTG, the switch fluorescence ratio is reported as 1 ± 0.027.

CAAATACCTG was tested, and the switch fluorescence ratio was 1.04 ± 0.019.

ATAGGATCAT gave a switch fluorescence ratio of 0.975 ± 0.03.

Work on GGAATAGTGG yielded a switch fluorescence ratio of 0.982 ± 0.025.

Work on TTCTTTCGTC yielded a switch fluorescence ratio of 0.979 ± 0.021.

CGAATTTGCT gave a switch fluorescence ratio of 1.01 ± 0.0079.

With AATTAGGGCT the switch fluorescence ratio was 0.971 ± 0.026.

TACGAGCTGA gave a switch fluorescence ratio of 1.027 ± 0.0097.

Work on GTTGGGGCTT yielded a switch fluorescence ratio of 1.021 ± 0.002.

CAGGAACTTT gave a switch fluorescence ratio of 0.995 ± 0.0012.

For CTCGGATAGC, the switch fluorescence ratio was 1.02 ± 0.045.

With GACTTGAATG the switch fluorescence ratio was 0.976 ± 0.011.

Sequence GCTGTTAGTG has a switch fluorescence ratio of 0.98 ± 0.013.

For ACGTGGGGTA, the switch fluorescence ratio was 1.04 ± 0.022.

CGCGGACGGT was tested, and the switch fluorescence ratio was 1.05 ± 0.052.

For CAGGTTTCTA, the switch fluorescence ratio was 1 ± 0.043.

In the case of GTCAGCTAAC, the switch fluorescence ratio is reported as 1.48 ± 0.053.

With TCACGCAGGG the switch fluorescence ratio was 1.03 ± 0.023.

With AACAATTATA the switch fluorescence ratio was 1.011 ± 0.0078.

TTATAGTTGG gave a switch fluorescence ratio of 0.98 ± 0.023.

For TTTGAACTTG, the switch fluorescence ratio was 1.01 ± 0.024.

TTTTTTTTGC gave a switch fluorescence ratio of 1.02 ± 0.092.

GCATCAGGAG was tested, and the switch fluorescence ratio was 1.05 ± 0.021.

AGCGATAGTT showed a switch fluorescence ratio of 1.1 ± 0.038.

Work on CTGGTATGGG yielded a switch fluorescence ratio of 1.01 ± 0.03.

CTTCAGGGAA gave a switch fluorescence ratio of 1.01 ± 0.032.

For TGCATCTGAG, the switch fluorescence ratio was 1 ± 0.021.

Work on AGCCGGATCA yielded a switch fluorescence ratio of 0.9931 ± 0.0056.

TAGTTTTTTC was tested, and the switch fluorescence ratio was 0.99 ± 0.021.

In the case of GGGAGGGGAG, the switch fluorescence ratio is reported as 0.981 ± 0.019.

CTACTGTGGG gave a switch fluorescence ratio of 0.9651 ± 0.006.

GACTTATGAG was tested, and the switch fluorescence ratio was 1.01 ± 0.047.

ATCGTATTCA gave a switch fluorescence ratio of 1.01 ± 0.027.

Sequence GTTCTTTGG has a switch fluorescence ratio of 0.9949 ± 0.0077.

Work on AGGGTAGCTT yielded a switch fluorescence ratio of 0.999 ± 0.031.

TAGGGGAAGA showed a switch fluorescence ratio of 1.003 ± 0.0076.

TGACTCCAGG gave a switch fluorescence ratio of 1.23 ± 0.023.

TAAAGTTTTT showed a switch fluorescence ratio of 1.002 ± 0.0088.

CTGTAAATTT gave a switch fluorescence ratio of 0.991 ± 0.03.

In the case of GTGATATTGT, the switch fluorescence ratio is reported as 1.01 ± 0.011.

With TTTTCAAGGA the switch fluorescence ratio was 0.993 ± 0.07.

For GTTAGGTAGG, the switch fluorescence ratio was 0.9818 ± 0.005.

TTAATGTCCT gave a switch fluorescence ratio of 1 ± 0.02.

For GAGGTAGTCA, the switch fluorescence ratio was 1.0112 ± 0.00047.

With ACGTAGTGGC the switch fluorescence ratio was 1.04 ± 0.02.

AGCGGGTCCG was tested, and the switch fluorescence ratio was 0.987 ± 0.017.

With CATTGATGAA the switch fluorescence ratio was 0.988 ± 0.06.

For CAAATTATGG, the switch fluorescence ratio was 1.03 ± 0.01.

GTTTGGGGTT was tested, and the switch fluorescence ratio was 0.979 ± 0.031.

For CATAGGGTGA, the switch fluorescence ratio was 1.01 ± 0.026.

Sequence GGGGCGTGTG has a switch fluorescence ratio of 1.01 ± 0.014.

TGCGTATATT gave a switch fluorescence ratio of 0.98 ± 0.017.

In the case of GTGTAAGCAG, the switch fluorescence ratio is reported as 0.995 ± 0.01.

AGTTATGCAC was tested, and the switch fluorescence ratio was 1.024 ± 0.0083.

Sequence GGGGCATGGA has a switch fluorescence ratio of 0.95 ± 0.018.

CAGTTCATTA gave a switch fluorescence ratio of 0.9976 ± 0.0031.

Work on GCTAGCTGGT yielded a switch fluorescence ratio of 0.989 ± 0.021.

For TTTACGGAAC, the switch fluorescence ratio was 1.244 ± 0.0059.

GATCGGGGGC showed a switch fluorescence ratio of 1.06 ± 0.14.

GCATGGTTGG gave a switch fluorescence ratio of 0.976 ± 0.034.

In the case of AGGTCACGGC, the switch fluorescence ratio is reported as 1 ± 0.034.

For CCGGACCACG, the switch fluorescence ratio was 1.01 ± 0.029.

GCTGGGGAAA was tested, and the switch fluorescence ratio was 0.996 ± 0.032.

In the case of TGAAGCAAAT, the switch fluorescence ratio is reported as 1.77 ± 0.075.

For TTTGCTTTGG, the switch fluorescence ratio was 0.997 ± 0.019.

Sequence GAGAAAAGGG has a switch fluorescence ratio of 1.04 ± 0.037.

TGGGGGACTG was tested, and the switch fluorescence ratio was 1.05 ± 0.054.

TGTCAAAGAT gave a switch fluorescence ratio of 0.9772 ± 0.0044.

Work on ATTGTGCTGT yielded a switch fluorescence ratio of 0.976 ± 0.043.

CCCCTTAGCG gave a switch fluorescence ratio of 1.09 ± 0.0067.

CGAGGGTACG was tested, and the switch fluorescence ratio was 1 ± 0.032.

TTGTAATTTA was tested, and the switch fluorescence ratio was 1.01 ± 0.019.

Work on CATGGTGAGC yielded a switch fluorescence ratio of 0.956 ± 0.041.

CGCGAATTTG was tested, and the switch fluorescence ratio was 1.02 ± 0.021.

TTTTTGGGAT was tested, and the switch fluorescence ratio was 1.01 ± 0.031.

In the case of TTGGGGTGTG, the switch fluorescence ratio is reported as 1.01 ± 0.017.

CGTTAAAATA was tested, and the switch fluorescence ratio was 1.01 ± 0.062.

Sequence CGCGAATATA has a switch fluorescence ratio of 1 ± 0.019.

Sequence TTTGGGTTTG has a switch fluorescence ratio of 1.01 ± 0.029.

AAGCTGCCTG showed a switch fluorescence ratio of 1.02 ± 0.018.

CGCAGGCCTC showed a switch fluorescence ratio of 1.47 ± 0.062.

With CAAGCGACGG the switch fluorescence ratio was 1.03 ± 0.022.

With GATTGAAAGC the switch fluorescence ratio was 0.962 ± 0.045.

ACAGAAGGTC showed a switch fluorescence ratio of 0.977 ± 0.015.

Sequence GGTTGTCTCG has a switch fluorescence ratio of 0.951 ± 0.021.

For AAGGGGTTCA, the switch fluorescence ratio was 0.991 ± 0.03.

With GCTTTCGTTA the switch fluorescence ratio was 1.018 ± 0.0071.

TAGGGGGCAG gave a switch fluorescence ratio of 1 ± 0.033.

For TGGTTTAATT, the switch fluorescence ratio was 1.01 ± 0.017.

Work on CGGTAGGAAT yielded a switch fluorescence ratio of 1.018 ± 0.0077.

With TTTTAATGTG the switch fluorescence ratio was 1 ± 0.016.

For TTCACGTTTT, the switch fluorescence ratio was 1.03 ± 0.087.

TTTGATCGGG showed a switch fluorescence ratio of 0.978 ± 0.015.

With GATGTAGTAT the switch fluorescence ratio was 0.982 ± 0.011.

GGGTTTAAGT was tested, and the switch fluorescence ratio was 0.986 ± 0.023.

For GGTATAGGTC, the switch fluorescence ratio was 1.05 ± 0.011.

CAAGGGCCAG showed a switch fluorescence ratio of 0.973 ± 0.07.

In the case of AGTTGGGTGC, the switch fluorescence ratio is reported as 0.99 ± 0.018.

For CTTAGGGCGG, the switch fluorescence ratio was 0.957 ± 0.027.

For GATTGAAGGG, the switch fluorescence ratio was 0.979 ± 0.032.

In the case of AGATATAGGG, the switch fluorescence ratio is reported as 0.937 ± 0.012.

AGTATATAGG gave a switch fluorescence ratio of 0.986 ± 0.018.

CGAGGGGACG showed a switch fluorescence ratio of 1 ± 0.013.

TGGGTCCGTG gave a switch fluorescence ratio of 0.963 ± 0.033.

With GCCTGGGAAG the switch fluorescence ratio was 0.976 ± 0.036.

CACAGGAGGG was tested, and the switch fluorescence ratio was 1.03 ± 0.019.

CAAGTTAAGG was tested, and the switch fluorescence ratio was 1.02 ± 0.013.

CAGGGGTAAA gave a switch fluorescence ratio of 1.01 ± 0.019.

Sequence GTTTCATGGG has a switch fluorescence ratio of 0.9685 ± 0.0041.

Sequence AAGGCTTAGC has a switch fluorescence ratio of 1.03 ± 0.039.

With GGCGACCTGG the switch fluorescence ratio was 0.993 ± 0.021.

GGATAGGTAC gave a switch fluorescence ratio of 1.05 ± 0.04.

AAATTCGACG showed a switch fluorescence ratio of 1.05 ± 0.046.

Work on TGACGAGGTG yielded a switch fluorescence ratio of 0.9816 ± 0.0051.

In the case of TTTATGGGAT, the switch fluorescence ratio is reported as 0.986 ± 0.032.

In the case of GGGGTTCAAA, the switch fluorescence ratio is reported as 0.997 ± 0.016.

TGGTTACCGA showed a switch fluorescence ratio of 1 ± 0.014.

Work on CAGGCGTCGT yielded a switch fluorescence ratio of 1.035 ± 0.0023.

TCGTTCAATC showed a switch fluorescence ratio of 1.314 ± 0.01.

CCCACTGGGA showed a switch fluorescence ratio of 1.32 ± 0.39.

TTTCAGGGAA gave a switch fluorescence ratio of 0.99 ± 0.054.

Work on TCCGCTTTTT yielded a switch fluorescence ratio of 1.1 ± 0.15.

TTGATCTT showed a switch fluorescence ratio of 1.008 ± 0.0042.

GCAGTTATTT showed a switch fluorescence ratio of 0.966 ± 0.026.

Work on GGTGATGGTT yielded a switch fluorescence ratio of 0.986 ± 0.047.

GAATTCGGCT showed a switch fluorescence ratio of 1.0193 ± 6.4e-05.

With ATGTTTTAGA the switch fluorescence ratio was 0.95 ± 0.015.

AATGAAAGCG gave a switch fluorescence ratio of 1.01 ± 0.015.

ATTTGACTTA gave a switch fluorescence ratio of 1.03 ± 0.015.

With TAGGCTCTTT the switch fluorescence ratio was 0.9777 ± 0.008.

AGTTGTGCCT showed a switch fluorescence ratio of 1.015 ± 0.0036.

Work on ACGTTTTTAG yielded a switch fluorescence ratio of 1 ± 0.013.

Sequence TTATTTGTCA has a switch fluorescence ratio of 0.989 ± 0.013.

ATACGGTAAT gave a switch fluorescence ratio of 1.16 ± 0.052.

CTTTGTTATG gave a switch fluorescence ratio of 0.9909 ± 0.0047.

Work on CATGGGGGCT yielded a switch fluorescence ratio of 0.964 ± 0.024.

AGGGCTGCAT gave a switch fluorescence ratio of 0.9874 ± 0.0035.

Sequence GGGGTTCCTC has a switch fluorescence ratio of 0.9919 ± 0.0096.

With AGGGAATAGG the switch fluorescence ratio was 1.01 ± 0.041.

In the case of AGGTATTTTT, the switch fluorescence ratio is reported as 1.009 ± 0.0042.

TTCTTTGGGA showed a switch fluorescence ratio of 1.02 ± 0.028.

In the case of TTCGTGCGAT, the switch fluorescence ratio is reported as 1.04 ± 0.013.

For CATGTAAGGG, the switch fluorescence ratio was 1.003 ± 0.0053.

For GCTTCTTAGT, the switch fluorescence ratio was 1.028 ± 0.0053.

TATAGGGAGC showed a switch fluorescence ratio of 0.947 ± 0.017.

TGAGGTACCG showed a switch fluorescence ratio of 1.0235 ± 0.00091.

TTGGGCACGG gave a switch fluorescence ratio of 0.991 ± 0.0052.
